This note sets out measurements from patent publication US20190194280A1.

Assay [1] deals with Serum samples collected at week 16 from patients immunized with UBI AD vaccine (UB-311). Put plainly: comp. ELISA, serum P101. A general note: In an ELISA, binding on a coated surface is turned into a signal by an enzyme label.
The target is the same in assay [2]. Put plainly: comp. ELISA, serum P104.
In assay [3] the target is Immune sera of baboons immunized with UBI AD vaccine. The assay can be described thus: competitive inhibition ELISA.
In assay [4] the target is Serum samples collected at week 16 from patients immunized with UBI AD vaccine (UB-311). Put plainly: comp. ELISA, serum P210.
Assay [5] has the same target. The assay can be described thus: comp. ELISA, serum P206.
For assay [6] the target is unchanged. Put plainly: comp. ELISA, serum P105.
Assay [7] has the same target. Put plainly: comp. ELISA, serum P205.
For assay [8] the target is unchanged. The assay can be described thus: comp. ELISA, serum P201.
The target is the same in assay [9]. Put plainly: comp. ELISA, serum P106.
For assay [10] the target is unchanged. The assay can be described thus: comp. ELISA, serum P102.
For assay [11] the target is unchanged. Put plainly: comp. ELISA, serum P207.
Assay [12] has the same target. Put plainly: comp. ELISA, serum P202.
The target is the same in assay [13]. Put plainly: comp. ELISA, serum P204.
For assay [14] the target is unchanged. The assay can be described thus: comp. ELISA, serum P107.
Assay [15] shares this target. The assay can be described thus: comp. ELISA, serum P209.
The target is the same in assay [16]. Put plainly: comp. ELISA, serum P203.
The target is the same in assay [17]. The assay can be described thus: comp. ELISA, serum P109.
Assay [18] has the same target. The assay can be described thus: comp. ELISA, serum P103.
For assay [19] the target is unchanged. Put plainly: comp. ELISA, serum P208.
Assay [20] shares this target. Put plainly: comp. ELISA, serum P108.

As to EFRHDSGYEV [Aβ3-12 or APP 770 (E674-V683)], the IC50-based peak height in [1], in assay [2], in [4], in assay [5], in [6] and in assay [7] was 0 each time. Further, the IC50-based peak height in assay [8], in assay [9], in [10], in assay [11], in [12] and in assay [13] was 0 each time. Besides, the IC50-based peak height in [14], in assay [15], in [16], in assay [17], in [18] and in assay [19] was 0 in each case. For the same molecule, the IC50-based peak height in assay [20] amounted to 0. The % inhibition (commonly the relative decrease from the control value, in per cent) at 0 µg/mL in assay [3] was 0%. Further, in assay [3], the % inhibition at 0.25 µg/mL was determined as 1%. Besides, the % inhibition at 0.5 µg/mL in [3] came out at 1%. In addition, in [3], the % inhibition at 1 µg/mL is 0%. This molecule had a % inhibition at 2 µg/mL in assay [3] of 0%. The % inhibition at 8 µg/mL in assay [3] was determined as 0%. Moreover, in assay [3], the % inhibition at 32 µg/mL worked out at 3%.

On to QKLVFFAEDV [Aβ15-24 or APP 770 (Q686-V695)], for which the IC50-based peak height in [1], in assay [2], in assay [4], in assay [5], in assay [6] and in [7] was 0 throughout. The IC50-based peak height in assay [8], in [9], in [10], in assay [11], in [12] and in [13] was 0 each time. The IC50-based peak height in assay [14], in assay [15], in [16], in assay [17], in assay [18] and in assay [19] was 0 throughout. For the same molecule, the IC50-based peak height in assay [20] was determined as 0.

As for HQKLVFFAED [Aβ14-23 or APP 770 (H685-D694)], the IC50-based peak height in assay [1], in [2], in [4], in assay [5], in assay [6] and in [7] was 0 each time. The IC50-based peak height in [8], in assay [9], in assay [10], in [11], in assay [12] and in assay [13] was 0 in each case. Besides, the IC50-based peak height in assay [14], in assay [15], in [16], in assay [17], in [18] and in assay [19] was 0 throughout. Further, the IC50-based peak height in assay [20] stood at 0.

Regarding AEFRHDSGYE [Aβ2-11 or APP 770 (A673-E682)], the IC50-based peak height is 2 in [1]; 0 in assay [2]; 0 in assay [4]; 0 in [5]; 0 in [6]; 0 in assay [7]. For the same molecule, the IC50-based peak height in [8] was found to be 3; in assay [9], 0; in [10], 0; in [11], 0; in [12] it was 0; in assay [13] it was 0. For the same molecule, the IC50-based peak height in assay [14], in assay [15], in assay [16], in assay [17], in assay [18] and in assay [19] was 0 throughout. Also, the IC50-based peak height in [20] was 0. Besides, in assay [3], the % inhibition at 0 µg/mL came out at 0%. The molecule also showed a % inhibition at 0.25 µg/mL in assay [3] of 3%. The molecule further registered a % inhibition at 0.5 µg/mL in assay [3] of 0%. Also, in [3], the % inhibition at 1 µg/mL is 0%. This molecule also had a % inhibition at 2 µg/mL in assay [3] of 0%. Further, the % inhibition at 8 µg/mL in assay [3] came out at 6%. The molecule also showed a % inhibition at 32 µg/mL in assay [3] of 19%.
